Data as given in the DeepSol protein solubility set.

experiment: soluble on expression in E. coli; label from the status in PepcDB or PDB records

Row | Sequence | soluble on expression in E. coli
1 | MGSDKIHHHHHHMKRVERVIITCAVTGSIHTPSMSPYLPVTPEQIAADSVAAAQAGAAMLHLHARNPRTGRPEQTPERFMEFLPRIREQCGAILNITTGGGLGMTLEERLAPAIAARPEVASMNMGSLNFNISGAAGKIRQFQHEWEKPYLEGTNDFILSNTFSQIEHGMRVLGESGTRFEFECYDVGHLYNLAHFVDRGLVKPPFFVQCIFGILGGIGADPENLLHMRAIADRLFGADYLLSVLAAGRHQMPFVSLSAILGGSVRVGLEDSLFIARHQLARSNAEQVAKIRRIVEELGLTVATADEARAMLATKGGDNVGF | not soluble
2 | MGSDKIHHHHHHMKSAPDWIAHPDTPYLLIDEAKLKSNINYLKQRVESLGSHLRPHLKTLRTLEAAGYLLDSKSAPATVSTLAEAEAYAKAGYTDLLYAVGIAPAKLKRVAALRQQGINLHILLDNITQAQAVVDYAAEFGQDFSVFIEIDSDDHRGGIKPSDSKLLTIAKTLGEHFTGLMTHAGGSYACNTEQGLKNFAKQECDAVRIARNNLETAGIHCAITSVGSTPTAHFGEDFSDISEVRAGVYTTFDLVMKNIGVCDFSHIAMSVVTTVIGHNKEKNWLLTDSGWMALSRDSGTAGQNRDFGYGQVCKIDGSVLDGLCVNSTSQEHGVIELSDAYQLEDFPVGHQLRIMPNHACATAAMHPVYHVLMSDGSHNTWQRITGW | not soluble
3 | MGSDKIHHHHHHMKSDTEEKYLQQVNRVIDYINSHLNEPLRVETLAREVCLSEYHFHRIMRAYLHEPLATYIARQRVERAVMYLQMKNIRLAQVAEMVGYETPQSLSKAFKQFFGISPTAYRKRRAERYEEFSTLKKESLKPEILTEPELKLVYIRIIGRYGEEEPYIEAWRKLRDFLQINGLLTPSTRWIGISFDDPTVTKTEQCRFYACATVEHDVSPQGAFGMKTIPQGRYAVYTLRGSYSGLQEMYDRIYSHPLPTAFRDATSFEEYLNCEPDTEEKDYVTRIYIPIE | not soluble
4 | MGSDKIHHHHHHMKSPTPALMLQGTSSNAGKSILTAAFCRILLQDGYRVAPFKAQNMALNSHVTADGLELGRAQAVQAAACRLDVDVRMNPVLLKPNSDTGSQVVVMGRPVGNMRVREYMAYKPVAFDAARAAYDSLAADVDVMVLEGAGSPAEVNLKAHDIVNMAMARHAEAKVLLVGDIDRGGVFASLVGTMELLDPWERDLVAGFVLNKFRGDATLLSPAYDVVTGRTGKPFLGVVPWLHDLGLPDEDSVSFRETLAGRAPDVPAGGGMLDIVLVDLPHISNFTDLDALRREPDVAVRVVRSPEQLGSPDAIILPGSKNTLGDLAALRSRGMAEALCALRSAEGGHLGPVIVGICGGFQMMGRFLADPQGVESDHACTEAGLGLLPVTTEMGSAKVLRRTSAKTVSGWCGAGVAAGLMPGTGGGHGGAEVCPGEGYAVHGYEIHHGVTTPDAGGGAVLVCLHESDGSPAGWTTPDGQVWGTYLHGVFDADGFRRGWLDALRVRRGLEPVGRVVARYDLDPALDRLADVVREAVDMGHIYSVLGLSPKGRRQT | not soluble
5 | MGSDKIHHHHHHMKSYRKELWFHTKRRREFINITPLLEECVRESGIKEGLLLCNAMHITASVFINDDEPGLHHDFEVWLEKLAPEKPYSQYKHNDTGEDNADAHLKRTIMGREVVIAITDRKMDLGPWEQVFYGEFDGMRPKRVLVKIIGE | soluble
6 | MGSDKIHHHHHHMKTNNSPISLLQTQNNTYNVLNNIKVHVEVRDNPYNLELDNLFQMAARINKKRSFLFVSTILGKHLPIKPAVSLASGFALAARYMEILHNTFHPFQKEILNLISLEVDEIPEEIFHYQYPLPEEVLFIGFAETATALGHSMFQCFQNAKYVHTTRESIPNLESVITFEEEHSHATSHRCYVDKSFFQNNNPIILVDDEMTTGKTALNIIRSIQQQFPREEYTIASLLDWRSNTNRRQFKQLEEELQIKIHVISLLEGRIHTTGQPLNITKTDTHIEETKPYFKKHTIICPALSYTSNYIKYTGRFGISSYEQKHIHSFAQEAGKMLQRKRIGKRTLCLGTGEFMYIPMKIAAEMGENILYQSTTRSPIHPVSNDVNYAIHNHFSYPNPEDSTITNYFYNISPHEYDEVFVFMERDVGEEALSPLLQHLQTVIPCIHIVSFSNSIEKEG | not soluble
7 | MGSDKIHHHHHHMKVKDLLNITDEDELKKYRVFRALSRFNYFPNQKQAIGELPDCFTTSSLTPEVCLRLLSGGIDNKRKNTGFAPVEYKSTRYNNIPRVLSLVHPVAHAQLCKHIYENWQDIEYISANTISRVRPEFYEVDKRIVVMNYDDPIVKDRKFNDITFGKKYIVNADIASCFDSIYSHSIPWAIKGYEFAKNNRGENEWFNQFDKFLRTTKRCETNGMPIGPATSSICLEIILARVDSRLHDLGFEHERYVDDFCCYCSTKEQADEFIIKLSELLAEYRLSLNLRKTTIIELPIASTDDWIVELNSLCIDRYNADGDLVLIGAKEAINIINKAVFLSQSHKDGSVIKFAVGFLVKKLADTAYQDVFECLLSLSFHYPILIPYLSILLGRGNLEAQHYVDKFQMIIEENALHKRSDGMAWPLHIFREHNIEPTQEIVDRVLETKDCVAITILQDICPDNENIRQFVVDISNDLDIKKDEYWLLLYQSYLLGHINNPYRDRCFIVLKDYGVNFFKTDSRTKFEMRCDNVGAVWAFKELEEIKQPQAKAVNI | not soluble
8 | MGSDKIHHHHHHMKVLLTRPQGRNQAMEEQLSLRDVAYLVTPLLSVVETTEQLNPTHLNNTDNLLFISSNAVDFAAQKLQQQFPTHCRYFAVGQATADSLAQYNINAFTSPEHSQDSEGLLSLAQLQDVDKQSFIIVRGLGGRETLAEQLQLRGANVNYWQVYQRAIPNLDGKAITQQWKSFGIDTIVVTSGEILSNLVELVPKELFAWLRACHIIVPSNRVELQAKAMGLSHISNANGANTQAILASLAL | not soluble
9 | MGSDKIHHHHHHMKVLVTGATGFIGRQVVHRLREAGAELRLASRHPERLGPGQDAMRMPDVDAPTAAFLALARGVTDVVHCAGLNNDEGNATEADFRAANAELSARLAQAAAEQASGRFIQLSSIRAVIGARVSATIDEDTIPDPQCAYGRSKREAEIRVLDAYASHGRSDATVLRLPPVYGTGMQGNLATLMRMADTGLPLPTGALTGTRSLLSAQSTAGAIWHLLSLSGRLRPIHVASDVPPVSIADIVDAFRDGFGRPTRLMAVPAGPLRIAAILLGKRTSWDSLTASQICDPSLLVSEGWLPETGTLERLAEIARLGDAQSPPLR | not soluble
10 | MGSDKIHHHHHHMKVLVTGHRGYIGAVLTPMLHQRDHDVTGLDSDIFRSCTFEGTLDDTPTMEEDVRDIVIDDLAGFDAVIHLAGLSNDPLGDYRPNLTQQINCEASVTLARLAKRAGVPRFLFASSCSNYGAAGSGFLTESAAFNPVTPYGISKVEVEHAVAPMADECFSPTFLRASTAYGLSPRIRFDLVLNNLTAWAFTTGQIYLKSDGSPWRPIVHVEDIARAYIAALEADRELVHNQAFNVGLTTENYQVREIADIVQAIVPNSRIEFAADAGPDTRCYRVDCNYIGRRLHAFKPQWTARRGVEQLYEAFCSVGLSLEDFEGERFKRIAHVKKLIRNGELDEDLRRVSVPTMALAV | not soluble
11 | MGSDKIHHHHHHMKVVPAQRCVYSFSANMAPVEEVYPGEQVVFETLDALGGSYDKIDFSKVNPATGPVFVNGVKPGDTLKVRIKRIELPRRGMIVTGKGFGVLGDEVEGFHTKELEIEKWAVLFDGVRIPIHPMVGVIGVAPQEGEYPTGTAHRHGGNMDTKEITENVTVHLPVFQEGALLALGDVHATMGDGEVCVSACEVPAKVVVEIDVSKEEIKWPVVETNDAYYIIVSLPDIEEALKEVTRETVWFIQRRKTIPFTDAYMLASLSVDVGISQLVNPAKTAKARIPKYIFTGV | soluble
12 | MGSDKIHHHHHHMLADLPIALNPHEPTSIPTQLTEQIRRLVARGILTPGDPLPSSRSLSTQLGVSRGSVVTAYDQLAGEGYLSTARGSGTTINPDLHLLKPVEIEKKETSRSVPPPLLNLSPGVPDTATLADSAWRAAWREACAKPPTHSPEQGLLRLRIEIADHLRQMRGLMVEPEQIIVTAGAREGLSLLLRTMDAPARIGVESPGYPSLRRIPQVLGHETIDVPTDESGLVPRALPHDLNALLVTPSHQYPYGGSLPADRRTALVAWAEANDALLIEDDFDSELRYVGMPLPPLRALAPDRTILLGTFSSVITPQVACGYLIAPTPQARVLATLRGILGQPVGAITQHALASYLASGALRRRTQRLRRLYRHRRSIVQDTLGDLPNTQLRPINGGLHAVLLCDKPQDLVVTTLASRGLNVTALSHYWGGTGADNGIVFGFGSHDEDTLRWVLAEISDAVSLG | not soluble
13 | MGSDKIHHHHHHMLDPSLLGHRFRRRPWAMFEVLTPLHIGNGNELTPVDFYPLGDRIIVLDTEKLINDLLRLGVEVEELLDFLRNPPGSLYLWRGYLEKLHLDPRNYARYSLRIRGELGRESSRIKEFIKIKGKPYIPGTSLKGAIRTAVLYKVLKDCGDVPTVVEALGKYGKTTGNIIRAITHPGNQDLLDYYLFYLGRGNVRGKQADDILEAIVFGFEAERRFRYEPKRDPMKALIVRDSRLIPLDNLSVYEVRVVGWGSSIPIWVEALDPGTRFEAEVKVDRELLRIGSDYFNGLLWHCLAGEDFEEFVWKAVEEFYGELAKLDNVKERDVIRLGWGSGWISMTVGILLMRKRGWERVRRKLGLGKNPHTNKIVERFPKTKRLANGQPMGWIKI | not soluble
14 | MGSDKIHHHHHHMLEPQDQKKLDELFSSMQEANGCFLGYPFAKDFDYEPLWRFMSLTGNNLGDPFEPGTYRVNSHAFECDVVDFFARLFRACSCEVWGYVTNGGTEGNIYGLYLARELYPNAVAYFSQDTHYSVSKGVRLLRLEHSVVRSQSNGEINYDDLAQKATRYRTRPAVVVANIGTTMKEGKDDTLKIRAVLHDVGISAIYVHSDAALCGPYAPLLNPKPAFDFADGADSITLSGHKFLGAPMPCGVVLSHKLHVQRVMRNIDYIGSSDTTLSGSRNAFTPIILWYAIRSLGIEGIKQTFQQCERLAAYTADELNVRGVSAWRNPNALTVVLPPVEDSIKTKWQIATQDVSHLVVTPGTTKQQADALIETISNRNR | not soluble
15 | MGSDKIHHHHHHMLERYQGEDGRRLRVEAALDSKLAKGNQALAEAIADVATLRQFKAGQALIEQGGDDNQVYILISGSCDVIVNAKVVNRRGPGDHVGEMAAIQPAQRRSATIMATEQVLAFELPEPVFANLAATYPDIYRLIAKDLARRLLQRNAVTGTPRKRIRVFVISSVEALPIARAIQTAFEYDPFTVIVWTDGVFKVANYTLQSLEDEIDNSDFAIAIAHPDDKVESRQAQWPQPRDNVIFELGLFMGRLGRARAILMEPRDEKVKLPSDLAGVTTIGYRFDPDGDTQAALAPACNRLRNHIVELGLAVG | not soluble
16 | MGSDKIHHHHHHMLGKTANGLFWMSRYLERAENTARLIETGQRIALTRLGSAEDEWVSILQSAGSLGGFREAYDTHGQDAAVDWMLRGKDNPSSIMSSIASARQNARLVRAAITGEVWEAINATYMTASDLLARKVSARDLPDVLASIRQHTALMRGMVHGTMLRNDIYDFLRIGTFLERADNTARILDVKYYVLLPSVSAVGSSIDNVQWESILRSVSARGGFRMEYGADGGPQEIAHFLIFDKRMPRSLAFCVSKIKDNLRYLNAGQPTPSPSQELVTHLENTYLSHGIEEVFDYGLHEFIEKMLELLLELAHQIQLDYRFYE | not soluble
